These results are taken from article PMC5986005, “Catalysis of transthiolacylation in the active centers of dihydrolipoamide acyltransacetylase components of 2‐oxo acid dehydrogenase complexes” (FEBS Open Bio, 2018).

Residue numbers refer to the chain shown, from its start. Names and notes keep the numbering of the source.

The target in data set [1] is T1, E1o (with LDo as acyl acceptor) (Escherichia coli, UniProt P0AFG3).
T1 construct: gene sucA; E1o purified on Ni-Sepharose; acceptor is the separate E2o lipoyl domain (residues 1-105, His6-tagged, lipoylated in vitro); with Dihydrolipoyllysine-residue succinyltransferase component of 2-oxoglutarate dehydrogenase complex
Kind of data set: reductive acylation of LDo, ESI FT-MS. The format is biochemical.

A further data set concerns the target T2, E2o (Escherichia coli, UniProt P0AFG6, H376W).
T2 construct: gene sucB; full-length E2o alone, pCA24N plasmid, expressed in E. coli, PEG precipitation and size exclusion
Kind of data set: intrinsic Trp fluorescence quenching (ex […] nm). The class given is binding.

In data set [2] the target is T3, CDo (E2o catalytic domain) (Escherichia coli, UniProt P0AFG6).
T3 construct: gene sucB; separate dihydro-LDo (residues 1-105) as acyl acceptor
Kind of data set: reverse succinyl transfer to dihydro-LDo, ESI FT-MS. The class given is biochemical. As to conditions: 40 μM dihydro-LDo, 0.10 mM TCEP, 0.15 mM succinyl-CoA, 35 mM NH4HCO3 pH 7.5, 30 °C.

Substrate in data set [3]: CC(C)(COP(=O)(O)OP(=O)(O)OC[C@H]1O[C@@H](n2cnc3c(N)ncnc32)[C@H](O)[C@@H]1OP(=O)(O)O)[C@@H](O)C(=O)NCCC(=O)NCCS
The experiment in a line: purified protein. The format is biochemical, Escherichia coli. The note with it: 2-oxoglutarate, NAD+, ThDP, Mg2+, kcat of overall reaction.

Substrate in data set [4]: O=C(O)CCC(=O)C(=O)O
Kind of data set: purified protein. The note with it: reassembled complex with wild-type E2o; CoA, NAD+, ThDP, Mg2+; kcat of overall reaction. The class given is biochemical, Escherichia coli.

Where [5] appears, read: reassembled complex with wild-type E2o.

T3 sequence (P0AFG6 94-405): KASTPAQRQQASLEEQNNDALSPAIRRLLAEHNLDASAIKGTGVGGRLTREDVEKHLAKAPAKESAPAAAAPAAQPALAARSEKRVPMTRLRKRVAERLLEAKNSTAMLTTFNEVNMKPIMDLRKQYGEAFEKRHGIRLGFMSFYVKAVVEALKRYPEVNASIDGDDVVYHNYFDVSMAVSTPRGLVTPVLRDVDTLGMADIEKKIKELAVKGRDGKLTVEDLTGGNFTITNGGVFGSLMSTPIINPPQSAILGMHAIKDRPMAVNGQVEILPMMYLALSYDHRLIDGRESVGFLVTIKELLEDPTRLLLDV

As for `CC(=O)C(=O)O` [pyruvate], in data set [1] (LDo as acyl acceptor, ThDP, Mg2+), the “reductive acylation of LDo, ESI FT-MS” value is given as “could also be used by E1o as substrates for reductive acylation of LDo”.

As a reminder, the Kd is the concentration at which binding is half-saturated. In the case of `CC(C)(COP(=O)(O)OP(=O)(O)OC[C@H]1O[C@@H](n2cnc3c(N)ncnc32)[C@H](O)[C@@H]1OP(=O)(O)O)[C@@H](O)C(=O)NCCC(=O)NCCS` [CoA, coenzyme A], binding at E2o was characterised by a dissociation constant (Kd) of 61.2 µM. Turning to `O=C(O)CCCC(=O)C(=O)O` [OA, 2-oxoadipate], the “reductive acylation of LDo, ESI FT-MS” value in data set [1] (100 μM LDo, 0.1 mM ThDP, 0.5 mM MgCl2, 35 mM NH4HCO3 pH 7.5, 2.5 mM OA) is listed as “could also be used by E1o as substrates for reductive acylation of LDo”. For `CC(C)(COP(=O)(O)OP(=O)(O)OC[C@H]1O[C@@H](n2cnc3c(N)ncnc32)[C@H](O)[C@@H]1OP(=O)(O)O)[C@@H](O)C(=O)NCCC(=O)NCCSC(=O)CCC(=O)O` [succinyl-CoA, succinyl-coenzyme A], the “reverse succinyl transfer to dihydro-LDo, ESI FT-MS” value in data set [2] is on record as “rate of succinyl transfer from succinyl‐CoA to the dihydro‐LDo”. Also, the Kd at E2o was 47 µM.

B1: OGDHc assembled from E1o, E2o and E3 (CoA site on E2o) (Escherichia coli K-12; H376W) (protein)
chain: SSVDILVPDLPESVADATVATWHKKPGDAVVRDEVLVEIETDKVVLEVPASADGILDAVLEDEGTTVTSRQILGRLREGNSAGKETSAKSEEKASTPAQRQQASLEEQNNDALSPAIRRLLAEHNLDASAIKGTGVGGRLTREDVEKHLAKAPAKESAPAAAAPAAQPALAARSEKRVPMTRLRKRVAERLLEAKNSTAMLTTFNEVNMKPIMDLRKQYGEAFEKRHGIRLGFMSFYVKAVVEALKRYPEVNASIDGDDVVYHNYFDVSMAVSTPRGLVTPVLRDVDTLGMADIEKKIKELAVKGRDGKLTVEDLTGGNFTITNGGVFGSLMSTPIINPPQSAILGMHAIKDRPMAVNGQVEILPMMYLALSYDWRLIDGRESVGFLVTIKELLEDPTRLLLDV
notes: components expressed separately in E. coli (pCA24N in AG1 for E1o and E2o) and reassembled at E1o:E2o:E3 mass ratio 1:1:1; with 2-oxoglutarate dehydrogenase E1 component; Dihydrolipoyl dehydrogenase
In general, Km refers to the substrate concentration at which the rate is half of its maximum. Broadly, the kcat is the maximal rate divided by the concentration of active sites. On to B1, for which, in the data set “purified protein [3]” (reassembled complex), the Km came to 13.3 µM and the catalytic constant (kcat) worked out at 28.8 s⁻¹.

B2: OGDHc assembled from E1o, E2o and E3 (CoA site on E2o) (Escherichia coli K-12) (protein)
chain: B1 chain with W375H
notes: as for B1
For the molecule B2, in the data set “purified protein [3]” (setting [5]), the Km was 20.4 µM and the kcat amounted to 48.0 s⁻¹.

B3: OGDHc assembled from E1o, E2o and E3 (CoA site on E2o) (Escherichia coli K-12; T324A) (protein)
chain: B1 chain with T323A, W375H
notes: as for B1
For the molecule B3, in “purified protein [3]” (reassembled complex), the Km worked out at 23.3 µM and the kcat stood at 21.7 s⁻¹.

B4: OGDHc assembled from E1o, E2o and E3 (CoA site on E2o) (Escherichia coli K-12; D380A) (protein)
chain: B1 chain with W375H, D379A
notes: as for B1
As for B4, in the data set “purified protein [3]” (reassembled complex), the Km was found to be 21.1 µM and the kcat stood at 4.6 s⁻¹.

B5: OGDHc assembled from E1o, E2o and E3 (CoA site on E2o) (Escherichia coli K-12; R377A) (protein)
chain: B1 chain with W375H, R376A
notes: as for B1
As to B5, in the data set “purified protein [3]” (reassembled complex), the Km amounted to 19.8 µM and the kcat came out at 27.0 s⁻¹.

B6: OGDHc assembled from E1o, E2o and E3 (CoA site on E2o) (Escherichia coli K-12; H376G) (protein)
chain: B1 chain with W375G
notes: as for B1
For the molecule B6, in the data set “purified protein [3]” (reassembled complex), the Km came to 20.6 µM and the kcat worked out at 5.76 s⁻¹.

B7: OGDHc assembled from E1o, E2o and E3 (2-oxoglutarate site on E1o) (Escherichia coli K-12) (protein)
chain: MQNSALKAWLDSSYLSGANQSWIEQLYEDFLTDPDSVDANWRSTFQQLPGTGVKPDQFHSQTREYFRRLAKDASRYSSTISDPDTNVKQVKVLQLINAYRFRGHQHANLDPLGLWQQDKVADLDPSFHDLTEADFQETFNVGSFASGKETMKLGELLEALKQTYCGPIGAEYMHITSTEEKRWIQQRIESGRATFNSEEKKRFLSELTAAEGLERYLGAKFPGAKRFSLEGGDALIPMLKEMIRHAGNSGTREVVLGMAHRGRLNVLVNVLGKKPQDLFDEFAGKHKEHLGTGDVKYHMGFSSDFQTDGGLVHLALAFNPSHLEIVSPVVIGSVRARLDRLDEPSSNKVLPITIHGDAAVTGQGVVQETLNMSKARGYEVGGTVRIVINNQVGFTTSNPLDARSTPYCTDIGKMVQAPIFHVNADDPEAVAFVTRLALDFRNTFKRDVFIDLVCYRRHGHNEADEPSATQPLMYQKIKKHPTPRKIYADKLEQEKVATLEDATEMVNLYRDALDAGDCVVAEWRPMNMHSFTWSPYLNHEWDEEYPNKVEMKRLQELAKRISTVPEAVEMQSRVAKIYGDRQAMAAGEKLFDWGGAENLAYATLVDEGIPVRLSGEDSGRGTFFHRHAVIHNQSNGSTYTPLQHIHNGQGAFRVWDSVLSEEAVLAFEYGYATAEPRTLTIWEAQFGDFANGAQVVIDQFISSGEQKWGRMCGLVMLLPHGYEGQGPEHSSARLERYLQLCAEQNMQVCVPSTPAQVYHMLRRQALRGMRRPLVVMSPKSLLRHPLAVSSLEELANGTFLPAIGEIDELDPKGVKRVVMCSGKVYYDLLEQRRKNNQHDVAIVRIEQLYPFPHKAMQEVLQQFAHVKDFVWCQEEPLNQGAWYCSQHHFREVIPFGASLRYAGRPASASPAVGYMSVHQKQQQDLVNDALNVE
notes: components expressed separately in E. coli (pCA24N in AG1 for E1o and E2o; E1o purified on Ni-Sepharose) and reassembled at E1o:E2o:E3 mass ratio 1:1:1; with Dihydrolipoyllysine-residue succinyltransferase component of 2-oxoglutarate dehydrogenase complex; Dihydrolipoyl dehydrogenase
As a reminder, the kcat/Km is the second-order rate constant that governs catalysis at low substrate concentration. Regarding B7, in the data set “purified protein [4]”, the Km was 50 ± 11 µM, the kcat came out at 48.0 s⁻¹ and the kcat/Km is 1.07e+06 M⁻¹ s⁻¹.
